Positions count from the first letter of the chain named.
B1: YU139-C01 (Fc fusion)
VH: QVQLVQSGAEVKKPGASVKVSCKASGYTFTSYGISWVRQAPGQGLEWMGWINTYNGNTNYAQKLQGRVTMTTDTSTTTAYMELRSLRSDDTAVYYCARDIGYSGSYYSPYYYYGMDVWGQGTTVTVSS
VL: SSELTQDPAVSVALGQTVRITCQGDGLRNYFASWYQQKPGQAPVLVIYGKNNRPSGIPDRFSGSSSGNTASLRIAGAQAEDEADYYCNSRDGSGKHLVFGGGTKLTV
notes: The format used in the Octet assay is not restated (captured via Fc); also called Yu139-CO1
B2: YU139-B01 (Fc fusion)
VH: QVQLQESGPGLVKPSGTLSLTCAVSGGSISSSNWWSWVRQPPGKGLEWIGEVYHSGSTNYNPSLKSRVTISVDKSKNQFSLKLSSVTAADTAVYYCARNIPLSSSWPNYYYYYGMDVWGQGTTVTVSS
VL: B1 VL with G26S, F31Y, R73T, A75N, G92S, G94A, L97W
B3: YU139-A03 (Fc fusion)
VH: QVQLVQSGGGVVQPGRSLRLSCAASGFTFSSYGIHWVRQAPGKGLEWVAIVSYDGRHKYYADSVKGRFTISRDDSKNTIYLQMDSLRAEDTAVYYCAKDSGNSGLEGIHDYWGQGTLVTVSS
VL: DVVMTQSPSSVSASVGDRVTITCRASQGISSWLAWYQQKPGKAPKLLIYAASSLQSGVPSRFSGSGSGTDFTLTISSLQPEDFGTYYCQQANSFPLTFGGGTKVEIK
notes: The format used in the Octet assay is not restated (captured via Fc)
B4: YU139-G01 (Fc fusion)
VH: QMQLVQSGAEVKMPGASVKVSCKASGYTFTSYGISWVRQAPGQGLEWMGWISAYNGNTYYAQKLQGRVTMTADTSTSTAYMDLRSLRSDDTAVYYCARLSYYNYAMDVWGQGTTVTVSS
VL: QSALTQPPSASGSPGQSVTISCTGTSSDVGGYNHVSWYQQHPGKAPKLMIYEVSNRPSGVPNRFSGSKSGNTASLTISGLQAEDEADYYCSSYTSSNTWVFGGGTKLTVL
B5: ecto-TMEM219 (receptor)
chain: THRTGLRSPDIPQDWVSFLRSFGQLTLCPRNGTVTGKWRGSHVVGLLTTLNFGDGPDRNKTRTFQATVLGSQMGLKGSSAGQLVLITARVTTERTAGTCLYFSAVPGILPSSQPPISCSEEGAGNATLSPRMGEECVSVWSHEGLVLTKLLTSEELALCGSR
notes: it is put last here only for want of better knowledge; also called EctoTMEM-His; extracellular domain of TMEM219; not shown: His tag (detected with anti 6xHis tag HRP)
B6: YU139-A02 (Fc fusion)
VH: QVQLVQSGAEVKKPGSSVKVSCKASGGTFSSYAISWVRQAPGQGLEWMGGIIPIFGTANYAQKFQGRVTITADESTSTAYMELSSLRSEDTAVYYCARDYYDSSGYYFDAFDIWGQGTMVTVSS
VL: QAGLTQPPSASGTPGQRVIISCSGSSSNIGTNTVSWYQHLPGTAPKLLIYNNNERPSGVPRRFSGSRSGASASLAISGLQSDDEAHYYCAAWDDNLTGLVFGGGTKLTVL
B7: YU139-H03 (Fc fusion)
VH: QVQLVQSGAEVKKPGASVKVSCKASGYTFTSYGISWVRQAPGQGLEWMGWISAYNGNTNYAQKLQGRVTMTTDTSTSTAYMELRSLRSDDTAVYYCARVKWELGWAFDIWGQGTMVTVSS
VL: QAVLTQPPSVSGAPGQRVTISCTGSSSNIGAGYDVHWYQQLPGTAPKLLIYGNSNRPSGVPDRFSGSKSGTSAPLAITGLQAEDEADYYCQSYDSSLSTVFGGGTKLTVL
notes: as for B3
B8: YU139-D02 (Fc fusion)
VH: EVQLVESGGGVVQPGRSLRLSCAASGFTFSSYGMHWVRQAPGKGLEWVAVISYDGSNKYYADSVKGRFTISRDNSKNTLYLQMNSLRAEDTAVYYCAKDNGDYGYYYYYYMDVWGKGTTVTVSS
VL: DIQMTQSPSTLSASVGDRVTITCRASQSISRWLAWYQQKPGKAPKLLIYDASSLESGVPSRFSGSGSGTEFTLTISSLQPDDFATYYCQQSYSTPLTFGPGTKVDIK
B9: YU139-G03 (Fc fusion)
VH: QVQLQQSGAEVKKPGSSVKVSCKASGGIFSTYVTSWVRQAPGQGLEWMGGIIPMFDTTEYAQKLEGRVTITVDESTNTAYMELSSLRFEDTAVYYCARAGGLSHFDYWGQGTLVTVSS
VL: EIVLTQSPLSLPVTPGEPASISCRSSQSLLHSNGNNYLNWYLQKPGQSPQLLIYLSSRRASGVPDRFSGSGSGTDFTLKISRVEAEDVGVYYCMQGLQTPWTFGQGTKVETK
B10: YU139-D03 (Fc fusion)
VH: QVQLVQSGAEVKKPGASVKVSCKASGYTFSDYGISWVRQAPGQGLEWMGWISGDNVKTTYAKKFQGRVTLTTDTSTSTAYMELRSLTSDDTAAYYCARGGIVFDYWGQGTLVTVSS
VL: ETTLTQSPGTLSLSPGERATLSCRASQSVSGNYLAWYQQKPGQPPRLLIFGASSRATGIPDRFSGSGSGTDFTLTISRLEPEDFGVYYCQQYGSSPGTFGQGTKVEIK

Key:
Recombinant human IGFBP3 [1] = molecular target: T1, Recombinant human IGFBP3 (human, UniProt P17936 28-291); test: cell-based or functional assay
mouse IGFBP3 [2] = molecular target: T2, mouse IGFBP3 (mouse, UniProt P47878 28-292, limits assumed); test: BLI (Octet/BLItz), antibody captured via Fc on AHC biosensor, antigen in solution
T2 construct: Bought protein; also called mIGFBP-3; murine IGFBP3
Protocol: (§1) To assess the binding affinity in more detail, affinity measurements were performed using Biomolecular Interaction Analysis performed by an Octet instrument (BLItz System), which is a Biolayer Interferometry (BLI) platform. To establish the assay, the target monoclonal antibody (30 μg/ml in 1% BSA-PBST) was immobilized via Fc on the via AHC biosensor and the interaction with the antigen human IGFBP3 (R&D, cat n° 675 B3) and mouse IGFBP3 (Creative Biomart, cat n° igfbp3 829M) at different concentration was measured.

Recombinant human IGFBP3 [3] = molecular target: T1, Recombinant human IGFBP3; test: as above
Protocol: as §1

Recombinant human IGFBP3 [4] = molecular target: T1, Recombinant human IGFBP3; test: competitive ELISA: plate coated with rhIGFBP3 4 µg/ml; ecto-TMEM219 10 µg/ml added with the antibody (10 µg/ml per paragraph 174); detection anti-HisTag HRP; blocked ligand: ecto-TMEM219
Protocol: FIG. 5. IGFBP3-Ecto-TMEM219 binding in the presence of newly generated anti-IGFBP3 mAbs (n=11, YU139 antibodies) or Ecto-TMEM219 alone or monoclonal anti-IGFBP3 commercially available (LSBIO LS-C45037/clone 83.8F9, mAnti-IGFBP3) tested by using a competitive ELISA screening assay. In this assay, the microtiter plate was coated with rhlGFBP3, and labeled ecto-TMEM219 added. Each candidate monoclonal antibody was added and its ability to displace ecto-TMEM219 was assessed by measuring Absorbance after the plate was washed. Boxed are anti-IGFBP3 antibodies able to achieve the highest reduction in Ecto-TMEM219 signal (1-way ANOVA, p<0.00001).
Microplate was coated with 50 μl/well of 4 μg/ml rhlGFBP3 dissolved in PBS or PBS alone (no coating). Plate was incubated 90 minutes at 37° C. and washed with PBS (300 μl/well) and incubated with the blocking reagent (200 μl/well) 2 hours at room temperature. Samples were then diluted in the diluent solution (50 μl/well) and added to the plate as follows: diluent solution (none), ecto-TMEM 10 μg/ml, ecto-TMEM 10 μg/ml+anti-IGFBP3 mAbs 10 μg/ml, anti-IGFBP3 mAbs 10 μg/ml alone. After washing steps, plate was then incubated at room temperature for 1 hour with anti 6×His tag HRP diluted 1:2000 in Diluent solution (50 μl/well). ELISA plate was then read after adding visualization solution at ELISAreader and adsorbance was measured.

Recombinant human IGFBP3 [5] = molecular target: T1, Recombinant human IGFBP3; test: ELISA: rhIGFBP3 2 µg/ml coated directly; scFv-Fc titrated 0.01-10 µg/ml; detection goat anti-human Fc-HRP, Abs 450 nm
Protocol: CVC microplates were coated with: i) 100 μl/well of 2 μg/ml rhIGFBP3 dissolved in PBS or PBS alone (no coating) and incubated 60 minutes at RT; ii) 100 μl/well of 2 μg/ml anti-IGFBP3 (LS-C45037 LSBio) and incubated o.n at 4° C. Plates were washed with H₂O-Tween20 (0.05%) and incubated with the blocking reagent (2% BSA-PBS-T (0.05%)). For condition ii) 100 μl/well of 2 μg/ml rhIGFBP3 was incubated o.n at 4° C. After washing the newly generated antibodies (in 2% BSA-PBS-T (0.05%)) were titrated onto the plate and incubated for 1 hour at RT. After washing steps, detection of bound antibodies was performed using a goat anti-human Fc-HRP antibody (Sigma A0170) in 2% BPS-PBS-T (0.05%) followed by washing and read out with TMB (100 μl/well). ELISA plates were then read measuring the absorbance at 450 nm.

mouse IGFBP3 [6] = molecular target: T2, mouse IGFBP3; test: BLI (Octet/BLItz)
Recombinant human IGFBP3 [7] = molecular target: T1, Recombinant human IGFBP3; test: BLI (Octet/BLItz)

T2 sequence (P47878 28-292 limits assumed): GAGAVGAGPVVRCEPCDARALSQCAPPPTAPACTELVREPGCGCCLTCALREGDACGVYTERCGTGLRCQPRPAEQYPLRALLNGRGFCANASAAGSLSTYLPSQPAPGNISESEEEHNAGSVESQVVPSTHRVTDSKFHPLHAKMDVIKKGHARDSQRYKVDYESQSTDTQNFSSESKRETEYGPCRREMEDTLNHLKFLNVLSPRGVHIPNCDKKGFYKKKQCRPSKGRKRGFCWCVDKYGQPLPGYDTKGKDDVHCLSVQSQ
T1 sequence (P17936 28-291 limits assumed): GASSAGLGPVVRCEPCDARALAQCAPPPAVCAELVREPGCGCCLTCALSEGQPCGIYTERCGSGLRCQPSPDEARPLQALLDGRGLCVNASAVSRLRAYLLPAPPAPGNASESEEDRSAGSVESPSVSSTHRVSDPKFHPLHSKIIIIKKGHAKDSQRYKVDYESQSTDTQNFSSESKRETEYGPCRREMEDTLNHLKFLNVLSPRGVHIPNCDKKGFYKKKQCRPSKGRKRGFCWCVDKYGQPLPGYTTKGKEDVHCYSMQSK

Row | Binder | expression of ISCs markers EphB2 and LGR5 (RT-PCR) in IGFBP3-treated mini-guts (Recombinant human IGFBP3 [1]) | Kd (Recombinant human IGFBP3 [3]) | binding result (Recombinant human IGFBP3 [4]) | further results
1 | B1 | ≥ 50% | 1.69 nM | – | Kd (mouse IGFBP3 [2]): 342 nM
2 | B2 | – | – | binds | –
3 | B3 | ≥ 50% | 328 nM | – | Kd (mouse IGFBP3 [2]): 735 nM
4 | B4 | – | – | – | binding result (Recombinant human IGFBP3 [5]): binds
5 | B5 | – | – | – | Kd (mouse IGFBP3 [6]): 60 nM; Kd (Recombinant human IGFBP3 [7]): 35 nM
6 | B6 | – | – | – | binding result (Recombinant human IGFBP3 [5]): binds
7 | B7 | ≥ 50% | 4000 nM | – | –
8 | B8 | – | – | binds | –
9 | B9 | ≥ 50% | – | – | –
10 | B10 | – | – | binds | –

From patent US20250270306A1 (OSPEDALE SAN RAFFAELE S R L, published 2025)
